1 substance from article PMC6791878, “Evaluation of integrin αvβ6 cystine knot PET tracers to detect cancer and idiopathic pulmonary fibrosis” (Nature Communications, 2019) can be followed below.

Experiment in all cases: flow cytometry on cells; equilibrium titration: 100 nM to 300 pM recombinant integrin αvβ6 incubated with 10^5 yeast cells displaying the knottin plus 10^6 un-induced yeast cells; integrin binding buffer (25 mM Tris pH 7.4, 150 mM NaCl, 2 mM CaCl2, 1 mM MgCl2, 1 mM MnCl2, 0.1% BSA); fluorescein anti-αv antibody, binding normalised to cMyc expression
In general terms: Flow cytometry measures light scatter and fluorescence of single cells or particles in a stream.

Assay [1] concerns the target R01 cystine knot peptide displayed on the yeast surface.
Assay [2] deals with R01-MG cystine knot peptide displayed on the yeast surface.
For assay [3], the target named is R01-MR cystine knot peptide displayed on the yeast surface.

Broadly, the Kd is a measure of binding affinity in units of concentration. On to “Recombinant human integrin αvβ6 (from UniProt P06756 31-1048; P18564 22-709) (complex)”, for which the results for the Kd in assay [1], in assay [2] and in assay [3] were 1 nM, 1.24 nM and 1 nM, respectively.
